This assay concerns the target T1, PP2A-B55, Q7ZX64.
T1 chain: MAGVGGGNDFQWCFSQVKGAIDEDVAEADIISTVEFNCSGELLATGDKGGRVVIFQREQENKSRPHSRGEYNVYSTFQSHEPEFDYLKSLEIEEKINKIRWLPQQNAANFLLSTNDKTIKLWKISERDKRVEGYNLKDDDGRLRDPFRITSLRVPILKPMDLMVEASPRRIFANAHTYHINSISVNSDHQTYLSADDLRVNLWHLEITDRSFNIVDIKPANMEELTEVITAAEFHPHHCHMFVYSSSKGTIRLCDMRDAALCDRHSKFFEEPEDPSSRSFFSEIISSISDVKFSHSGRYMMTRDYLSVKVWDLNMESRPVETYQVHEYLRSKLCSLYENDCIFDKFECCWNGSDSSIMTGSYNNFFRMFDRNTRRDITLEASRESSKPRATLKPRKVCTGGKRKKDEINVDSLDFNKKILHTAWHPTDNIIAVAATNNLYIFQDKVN
Nature of the assay: His pull-down, western blot quantification. The following applies: read off a plot. A general note: In western blotting, separated proteins are transferred to a membrane and probed.

The mark [1] stands for this setting: chain shown with the change, 20 ng His-Arpp19, panel titled Phospho-Arpp19, parent: est. 0.98.
[2] abbreviates: chain shown with the change, Arpp19 thio-phosphorylated at S67/S71 (ATPγS and recombinant Gwl kinase), parent: est. 1.0.
[3] abbreviates: chain shown with the change;, parent: est. 0.83.
The mark [4] stands for this setting: chain shown with the change;, parent: est. 0.90.

Substitutions are numbered along the chain they refer to. Names and notes keep the numbering of the source.

B1: 6His-Xenopus Arpp19 (isoform 1), wild type Y68A (protein)
chain: MSGENQETKAQEESSALEQKEIDDKVVSPEKSEEIKLKARYPNLGPKPGGSDFLRKRLQKGVSKKQKAFDSGDYNMAKAKMKNKQLPTAASDKTEVTGDHIPTPQDLPQRKPSLVASKLAG
Take B1: the response is 0.16 AU under setting [1] and 0.18 AU under setting [2].

B2: 6His-Xenopus Arpp19 (isoform 1), wild type G72A; S71A (protein)
chain: B1 chain with A68Y, S71A, G72A
As to B2, the response under setting [3] worked out at 0.16 AU.

B3: 6His-Xenopus Arpp19 (isoform 1), wild type Y74A (protein)
chain: B1 chain with A68Y, Y74A
For the molecule B3, the response reads like this: under setting [1], 0.09 AU; under setting [2], 0.11 AU.

B4: 6His-Xenopus Arpp19 (isoform 1), wild type S71T (protein)
chain: B1 chain with A68Y, S71T
In the case of B4, the response under setting [1] is 0.21 AU and the response under setting [2] was determined as 0.13 AU.

B5: 6His-Xenopus Arpp19 (isoform 1), wild type D73A (protein)
chain: B1 chain with A68Y, D73A
Turning to B5, the response runs as follows: under setting [1], 0.16 AU; under setting [2], 0.15 AU.

B6: 6His-Xenopus Arpp19 (isoform 1), wild type G72A (protein)
chain: B1 chain with A68Y, G72A
Regarding B6, the response amounted to 1.4 AU under setting [1] and 1.2 AU under setting [3].

B7: 6His-Xenopus Arpp19 (isoform 1), wild type Q66A (protein)
chain: B1 chain with Q66A, A68Y
As to B7, the response under setting [1] worked out at 0.86 AU.

B8: 6His-Xenopus Arpp19 (isoform 1), wild type D70A (protein)
chain: B1 chain with A68Y, D70A
As to B8, the response is 0.14 AU under setting [1] and 0.04 AU under setting [2].

B9: 6His-Xenopus Arpp19 (isoform 1), wild type K67A (protein)
chain: B1 chain with K67A, A68Y
Regarding B9, under setting [1], the response turned out to be 0.52 AU.

B10: 6His-Xenopus Arpp19 (isoform 1), wild type F69A (protein)
chain: B1 chain with A68Y, F69A
As for B10, the response under setting [1] came to 0.04 AU and the response under setting [2] amounted to 0.08 AU.

B11: 6His-Xenopus Arpp19 (isoform 1), wild type T103A; P104A (protein)
chain: B1 chain with A68Y, T103A, P104A
For B11, under setting [4], the response worked out at 0.57 AU.

B12: 6His-Xenopus Arpp19 (isoform 1), wild type G72A; S71T (protein)
chain: B1 chain with A68Y, S71T, G72A
Turning to B12, under setting [3], the response is 0.08 AU.

B13: 6His-Xenopus Arpp19 (isoform 1), wild type T103A; P104A; D106A; L107A; P108A; Q109A (protein)
chain: B1 chain with A68Y, T103A, P104A, D106A, L107A, P108A, Q109A
Consider B13, for which the response under setting [4] was 0.36 AU.

Source of the values: paper PMC8196004.
